Data on 22 molecules can be found in US20170081400A1 (CEPHALON, published 2017).

The target in experiment [1] is T1, human TL1A extracellular domain with N-terminal HIS and FLAG tag (human, UniProt O95150 72-251).
T1 construct: whole entry named. ~70 kDa fraction purified by gel filtration
T1 sequence: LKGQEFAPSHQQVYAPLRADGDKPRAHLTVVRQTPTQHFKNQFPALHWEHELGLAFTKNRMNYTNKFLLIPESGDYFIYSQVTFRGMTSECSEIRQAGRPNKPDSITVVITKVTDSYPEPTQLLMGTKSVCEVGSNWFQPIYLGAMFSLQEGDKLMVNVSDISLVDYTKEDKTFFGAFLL
As to the kind of experiment: SPR run 2; supernatant on Protein A; TL1A 10 ug/mL; timepoint 44. An outline of the steps:
(§1)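 Biacore T200 SPR with antibody (supernatant or Protein A-purified) captured on Protein A amine-coupled to a CM5 chip; capture level recorded as response change at end of capture.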

For experiment [2], the target named is T1, human TL1A extracellular domain with …. Kind of experiment: SPR run 2; supernatant on Protein A; TL1A 10 ug/mL; timepoint 220. An outline of the steps:
(§2)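 Surface plasmon resonance on a Biacore T200 was used, with variants spread over several runs. Antibodies were captured via immobilized Protein A, and their capture level was recorded. Sensorgrams were double-referenced, and the antigen response was read near the end of dissociation.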

Experiment [3] has the same target. As to the kind of experiment: SPR run 2; purified antibody on Protein A; TL1A 10 ug/mL; timepoint 44. The source says:
(§3) 1.5. Antibody expression and antigen binding as determined by SPR. Using a CM5 sensor chip (GE Healthcare) Protein A (Pierce) was coupled to the chip surface using an amine coupling kit (GE Healthcare). Protein A was coupled on flow cell 1 and 2 (or alternatively 3 and 4) using a BIACORE® T200. […] The amount of supernatant or purified protein (as well as the concentration) injected during the capture stage varied between runs and is specified in the header of the Tables 3-11. At the end of injection of the supernatant or purified antibody the change in response units was measured. This value was reported as Capture Level in Tables 3-11. […] The response units were measured prior to the end of the dissociation phase. […] The sensorgrams were double referenced (flow cell 2 is subtracted from flow cell 1 and a buffer blank). As there were a large number of antibody variants to screen, these were screened across different runs (Tables 3-11). […] A summary of the conditions used in each run is below:
(§4) 2.1. […] In some experiment the antibodies were purified using Protein A chromatography (See 1.4) and purified antibodies were used in BIACORE® (GE Healthcare) experiments.

Experiment [4] has the same target. Kind of experiment: SPR run 2; purified antibody on Protein A; TL1A 10 ug/mL; timepoint 590.
Excerpt: as §3, §4

Experiment [5] deals with T2, human TL1A extracellular domain with N-terminal HIS and FLAG tag (human, UniProt O95150 72-251).
T2 construct: the whole entry is named; also called TNFSF15
T2 sequence: T1 sequence
Kind of experiment: SPR Run 9, antibody on Protein A, TL1A 5 ug/mL, timepoint 44.
Excerpt: as §3, §4

The target of experiment [6] is T2, human TL1A extracellular domain with …. As to the kind of experiment: SPR Run 9, antibody on Protein A, TL1A 5 ug/mL, timepoint 590.
Excerpt: as §3, §4

Experiment [7] deals with T3, human TL1A extracellular domain with N-terminal HIS and FLAG tag (human) (UniProt O95150).
T3 sequence: T1 sequence
As to the kind of experiment: cell-based or functional assay.

Experiment [8] addresses T1, human TL1A extracellular domain with …. Kind of experiment: SPR run 3; supernatant on Protein A; TL1A 10 ug/mL; timepoint 59. The gist of the method:
as §1

The target is the same in experiment [9]. Kind of experiment: SPR run 3; supernatant on Protein A; TL1A 10 ug/mL; timepoint 590. An outline of the steps:
as §2

Experiment [10] addresses T2, human TL1A extracellular domain with …. As to the kind of experiment: cell-based or functional assay.

Where a chain is given by its changes, count along the chain named.

B1: 320-193 (antibody, human IgG1, name in Kabat numbering, V domains shown)
VH: QVQLVQSGAEVKKPGASVKVSCKASGYTFTSYDINWVRQAPGQGLEWMGWLNPNSGNTGYAQKFQGRVTMTADRSTSTAYMELSSLRSEDTAVYYCAREVPETAAFEYWGQGTLVTVSS
VL: QSVLTQPPSVSGAPGQRVTISCSSSSSDIGAGLGVHWYQQLPGTAPKLLIEGYYNRPSGVPDRFSGSKSGTSASLTITGLLPEDEGDYYCQSYDGTLSALFGGGTKLTVLG
notes: human IgG1, lambda
Turning to B1, the results for the “TL1A Binding Level (Early)” value in experiment [1] and in experiment [3] were 249 RU and 103 RU, respectively. For the same molecule, the “TL1A Binding Level (Late)” value in experiment [2] is 227 RU; in experiment [4], 91 RU.

B2: 320-603 (antibody, human IgG1, name in Kabat numbering, V domains shown)
VH: B1 VH with N57Y
VL: B1 VL with S23T, H36L, Y93F
notes: full-length human IgG1, lambda
With B2, the “TL1A Binding Level (Early)” value in experiment [5] was 126 RU. Moreover, in experiment [6], the “TL1A Binding Level (Late)” value was 118 RU.

B3: 320-307 (antibody, human IgG1, name in Kabat numbering, V domains shown)
VH: B1 VH
VL: B1 VL with S23T, H36L
notes: human IgG1, lambda
Consider B3, for which, in experiment [7], the Antibody IC50, TL1A induced caspase potency assay in TF-1 cells is 0.01 µg/mL and the Fold improvement over 320-179, TL1A induced caspase potency assay in TF-1 cells came to 4 fold. The “TL1A Binding Level (Early)” value in experiment [8] turned out to be 216 RU. Further, the “TL1A Binding Level (Late)” value in experiment [9] is 200 RU.

B4: 320-602 (antibody, human IgG1, name in Kabat numbering, V domains shown)
VH: B1 VH with N57Y
VL: B1 VL with S23T, L33Q, Y93F
notes: as for B2
Consider B4, for which the “TL1A Binding Level (Early)” value in experiment [5] worked out at 131 RU. In addition, the “TL1A Binding Level (Late)” value in experiment [6] was determined as 125 RU.

B5: 320-599 (antibody, human IgG1, name in Kabat numbering, V domains shown)
VH: B1 VH
VL: B1 VL with S23T, L33S, Y93F
notes: as for B2
Take B5: in experiment [5], the “TL1A Binding Level (Early)” value worked out at 113 RU. Further, in experiment [6], the “TL1A Binding Level (Late)” value was found to be 103 RU.

B6: 320-302 (antibody, human IgG1, name in Kabat numbering, V domains shown)
VH: B1 VH
VL: B1 VL with S23T, H36A
notes: human IgG1, lambda
B6: in experiment [7], the Antibody IC50, TL1A induced caspase potency assay in TF-1 cells was 0.01 µg/mL and the Fold improvement over 320-179, TL1A induced caspase potency assay in TF-1 cells is 2 fold. Moreover, the “TL1A Binding Level (Early)” value in experiment [8] was 99 RU. In [9], the “TL1A Binding Level (Late)” value was 74 RU.

B7: 320-600 (antibody, human IgG1, name in Kabat numbering, V domains shown)
VH: B1 VH
VL: B1 VL with S23T, G32A, Y93F
notes: as for B2
On to B7, for which the “TL1A Binding Level (Early)” value in [5] was 111 RU. Further, the “TL1A Binding Level (Late)” value in [6] is 104 RU.

B8: 320-197 (antibody, human IgG1, name in Kabat numbering, V domains shown)
VH: B1 VH
VL: B1 VL with S23K
notes: human IgG1, lambda
Turning to B8, the entries for the “TL1A Binding Level (Early)” value in [1] and in experiment [3] were 255 RU and 105 RU, respectively. Also, the “TL1A Binding Level (Late)” value in experiment [2] stood at 232 RU; in experiment [4], 94 RU.

B9: 320-597 (antibody, human IgG1, name in Kabat numbering, V domains shown)
VH: B1 VH
VL: B1 VL with S23T, L33Q, Y93F
notes: as for B2
On to B9, for which, in [5], the “TL1A Binding Level (Early)” value amounted to 115 RU. For the same molecule, in experiment [6], the “TL1A Binding Level (Late)” value is 105 RU.

B10: 320-598 (antibody, human IgG1, name in Kabat numbering, V domains shown)
VH: B1 VH
VL: B1 VL with S23T, H36L, Y93F
notes: as for B2
As for B10, the “TL1A Binding Level (Early)” value in experiment [5] was found to be 112 RU. Besides, the “TL1A Binding Level (Late)” value in experiment [6] was found to be 101 RU.

B11: 320-601 (antibody, human IgG1, name in Kabat numbering, V domains shown)
VH: B1 VH with N57Y
VL: B1 VL with S23T, Y93F
notes: as for B2
As for B11, in experiment [10], the “Antibody IC50, TL1A induced caspase potency assay in TF-1 cells” value (shortened to “Antibody IC50”) was 0.002 µg/mL and the “Fold improvement over 320-179, TL1A induced caspase potency assay in TF-1 cells” value (shortened to “Fold improvement”) turned out to be 10 fold. The “TL1A Binding Level (Early)” value in experiment [5] came to 121 RU. The “TL1A Binding Level (Late)” value in experiment [6] was determined as 120 RU.

B12: 320-616 (antibody, human IgG1, name in Kabat numbering, V domains shown)
VH: B1 VH with N57Y
VL: B1 VL with S23T, G95A
notes: as for B2
B12: the “TL1A Binding Level (Early)” value in [5] came to 120 RU. In addition, in experiment [6], the “TL1A Binding Level (Late)” value was found to be 112 RU.

B13: 320-596 (antibody, human IgG1, name in Kabat numbering, V domains shown)
VH: B1 VH
VL: B1 VL with S23T, Y93F
notes: as for B2
With B13, the “TL1A Binding Level (Early)” value in experiment [5] is 95 RU. The “TL1A Binding Level (Late)” value in [6] was 85 RU.

B14: 320-611 (antibody, human IgG1, name in Kabat numbering, V domains shown)
VH: B1 VH with N57Y
VL: B1 VL with S23T, Y93W, G95K
notes: as for B2
Turning to B14, in experiment [10], the “Antibody IC50” value came out at 0.005 µg/mL and the “Fold improvement” value came out at 8 fold. For the same molecule, the “TL1A Binding Level (Early)” value in experiment [5] is 125 RU. Besides, in experiment [6], the “TL1A Binding Level (Late)” value was found to be 127 RU.

B15: 320-614 (antibody, human IgG1, name in Kabat numbering, V domains shown)
VH: B1 VH with N57Y
VL: B1 VL with S23T, G95K
notes: as for B2
As for B15, the “TL1A Binding Level (Early)” value in experiment [5] was found to be 122 RU. Also, the “TL1A Binding Level (Late)” value in experiment [6] worked out at 111 RU.

B16: 320-612 (antibody, human IgG1, name in Kabat numbering, V domains shown)
VH: B1 VH
VL: B1 VL with S23T, Y93W, G95Y
notes: as for B2
Take B16: the “TL1A Binding Level (Early)” value in experiment [5] is 126 RU. In addition, the “TL1A Binding Level (Late)” value in experiment [6] amounted to 120 RU.

B17: 320-613 (antibody, human IgG1, name in Kabat numbering, V domains shown)
VH: B1 VH with N57Y
VL: B1 VL with S23T, Y93W, G95Y
notes: as for B2
As for B17, in experiment [10], the “Antibody IC50” value stood at 0.01 µg/mL and the “Fold improvement” value stood at 4 fold. The “TL1A Binding Level (Early)” value in [5] came out at 135 RU. In addition, in [6], the “TL1A Binding Level (Late)” value amounted to 131 RU.

B18: 320-199 (antibody, human IgG1, name in Kabat numbering, V domains shown)
VH: B1 VH
VL: B1 VL with S23W
notes: human IgG1, lambda
Turning to B18, the “TL1A Binding Level (Early)” value in experiment [1] was found to be 251 RU; in [3], 97 RU. Besides, the “TL1A Binding Level (Late)” value in experiment [2] came to 233 RU; in experiment [4] it was 85 RU.

B19: 320-194 (antibody, human IgG1, name in Kabat numbering, V domains shown)
VH: B1 VH
VL: B1 VL with S23Q
notes: human IgG1, lambda
With B19, the “TL1A Binding Level (Early)” value in experiment [1] was 247 RU; in experiment [3] it was 76 RU. Further, the “TL1A Binding Level (Late)” value in [2] came out at 226 RU; in experiment [4] it was 64 RU.

B20: 320-203 (antibody, human IgG1, name in Kabat numbering, V domains shown)
VH: B1 VH
VL: B1 VL with S23T, S24D
notes: human IgG1, lambda
Regarding B20, the “TL1A Binding Level (Early)” value in experiment [1] is 61 RU; in experiment [3], 65 RU. The “TL1A Binding Level (Late)” value in [2] was 24 RU; in experiment [4], 35 RU.

B21: 320-605 (antibody, human IgG1, name in Kabat numbering, V domains shown)
VH: B1 VH with N57Y
VL: B1 VL with S23T, G32A, Y93F
notes: as for B2
Regarding B21, the “TL1A Binding Level (Early)” value in [5] stood at 125 RU. In addition, in experiment [6], the “TL1A Binding Level (Late)” value was 120 RU.

B22: 320-615 (antibody, human IgG1, name in Kabat numbering, V domains shown)
VH: B1 VH with N57Y
VL: B1 VL with S23T, G95Y
notes: as for B2
Consider B22, for which, in experiment [5], the “TL1A Binding Level (Early)” value worked out at 113 RU. Moreover, the “TL1A Binding Level (Late)” value in experiment [6] is 108 RU.
